Ends that are not written are not given here. cellulose = not defined here

The record followed here is article PMC3470569, “Probing Subunit-Subunit Interactions in the Yeast Vacuolar ATPase by Peptide Arrays” (PLoS ONE, 2012).

Common to all, as to test: peptide or protein array; 20-mer peptides linked at their C-terminal end to cellulose and spotted in duplicate on glass slides; blocked in 2% nonfat milk; purified probe at 4 µM in TBS for 1 hour at 4°C; bound probe detected through MBP or FLAG with HRP-coupled antibody (chemiluminescence); hits by ANOVA (p 0.05, Bonferroni) and HCL in MeV, score of at least 1 in 75% of the spots
Common to all, as to settings: both partners purified

In assay [1] the target is T1, EG heterodimer (untagged subunit E with FLAG-tagged subunit G) (S. cerevisiae, UniProt P22203 1-233; P48836 1-114).
T1 construct: V-ATPase subunit E (Vma4p), S. cerevisiae, tagless; V-ATPase subunit G (Vma10p), S. cerevisiae; also called EG-FLAG; source: E. coli, co-expressed from one bicistronic plasmid, purified (amylose, PreScission cleavage of MBP, DEAE, amylose); not shown: MBP, N-terminal, cleaved; FLAG, N-terminal, kept
T1 sequence (looked up) 1: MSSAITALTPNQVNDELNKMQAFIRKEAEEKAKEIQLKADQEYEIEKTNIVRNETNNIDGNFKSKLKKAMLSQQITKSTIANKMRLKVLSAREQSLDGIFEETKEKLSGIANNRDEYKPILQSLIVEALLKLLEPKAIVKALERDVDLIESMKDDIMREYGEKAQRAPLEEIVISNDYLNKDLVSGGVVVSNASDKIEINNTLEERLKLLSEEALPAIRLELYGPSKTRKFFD
T1 sequence (looked up) 2: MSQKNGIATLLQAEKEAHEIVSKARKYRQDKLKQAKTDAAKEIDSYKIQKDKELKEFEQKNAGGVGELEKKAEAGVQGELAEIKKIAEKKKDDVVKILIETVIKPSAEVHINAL

For assay [2], the target named is T2, subunit E (Vma4p), N-terminal MBP fusion (S. cerevisiae, UniProt P22203 1-233).
T2 construct: V-ATPase subunit E (Vma4p), S. cerevisiae, 233 amino acids; also called MBP-E; source: E. coli, purified (amylose column); not shown: MBP, N-terminal, kept
T2 sequence (looked up): T1 sequence (looked up) 1

Assay [3] addresses T3, full-length subunit H (Vma13p), N-terminal MBP fusion (S. cerevisiae, UniProt P41807 1-478).
T3 construct: V-ATPase subunit H (Vma13p), S. cerevisiae, 478 amino acids; Construct provided by the laboratory of Dr. Patricia Kane; also called MBP-H; source: E. coli, purified (amylose column; ultrafiltration or size exclusion chromatography); not shown: MBP, N-terminal, kept
T3 sequence (looked up): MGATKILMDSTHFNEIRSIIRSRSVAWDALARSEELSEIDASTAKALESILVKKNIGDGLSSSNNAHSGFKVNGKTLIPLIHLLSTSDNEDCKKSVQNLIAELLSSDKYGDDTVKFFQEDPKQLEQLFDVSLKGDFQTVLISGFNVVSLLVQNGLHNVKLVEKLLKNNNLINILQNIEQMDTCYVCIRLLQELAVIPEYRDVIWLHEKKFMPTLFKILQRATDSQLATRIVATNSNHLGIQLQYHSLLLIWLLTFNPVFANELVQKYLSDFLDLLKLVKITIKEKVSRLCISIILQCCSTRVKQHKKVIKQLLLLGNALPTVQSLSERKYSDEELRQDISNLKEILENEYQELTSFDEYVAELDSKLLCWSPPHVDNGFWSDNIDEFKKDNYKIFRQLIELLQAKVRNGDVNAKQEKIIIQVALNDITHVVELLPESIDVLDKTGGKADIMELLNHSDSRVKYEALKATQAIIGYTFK

Assay [4] deals with maltose binding protein (MBP) only (UniProt P0AEX9 27-396 = MBP).
The target in assay [5] is T4, full-length subunit C, N-terminal MBP fusion (S. cerevisiae, UniProt P31412 1-392).
T4 construct: V-ATPase subunit C, S. cerevisiae, 392 amino acids; also called MBP-C; source: E. coli, purified (amylose column); not shown: MBP, N-terminal, kept
T4 sequence (looked up): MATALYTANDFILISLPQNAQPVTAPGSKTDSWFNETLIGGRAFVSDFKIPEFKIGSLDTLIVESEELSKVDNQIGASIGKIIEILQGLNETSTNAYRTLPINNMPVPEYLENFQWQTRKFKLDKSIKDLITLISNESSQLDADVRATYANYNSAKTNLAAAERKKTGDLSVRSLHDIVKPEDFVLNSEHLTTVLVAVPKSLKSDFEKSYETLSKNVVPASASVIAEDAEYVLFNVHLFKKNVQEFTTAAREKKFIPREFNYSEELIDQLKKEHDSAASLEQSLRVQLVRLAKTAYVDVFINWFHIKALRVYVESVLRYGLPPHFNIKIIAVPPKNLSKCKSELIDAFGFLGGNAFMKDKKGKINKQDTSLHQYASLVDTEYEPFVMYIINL

The target in assay [6] is T5, C-terminal domain of subunit H (HCT), N-terminal MBP fusion (S. cerevisiae, UniProt P41807 353-478).
T5 construct: V-ATPase subunit H (Vma13p), S. cerevisiae, C-terminal globular domain 353-478 (126 amino acids); Construct provided by the laboratory of Dr. Patricia Kane; also called MBP-HCT; source: E. coli, purified (amylose column; ultrafiltration or size exclusion chromatography); not shown: MBP, N-terminal, kept
T5 sequence (looked up): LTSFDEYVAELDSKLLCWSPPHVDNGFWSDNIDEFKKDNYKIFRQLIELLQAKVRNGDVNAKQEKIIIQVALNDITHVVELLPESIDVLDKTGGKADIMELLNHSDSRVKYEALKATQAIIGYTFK

In assay [7] the target is T6, subunit G (Vma10p) with FLAG tag (S. cerevisiae, UniProt P48836 1-114).
T6 construct: V-ATPase subunit G (Vma10p), S. cerevisiae, 114 amino acids; also called G-FLAG; FLAG-G; source: E. coli, from the bicistronic MBP-FLAG-G / E construct, purified (amylose, PreScission cleavage of MBP, DEAE, amylose); not shown: MBP, N-terminal, cleaved
T6 sequence (looked up): T1 sequence (looked up) 2

The target in assay [8] is T3, full-length subunit H (Vma13p), …. This is another data set of the same source.

B1: a(281-300) (peptide, UniProt P32563 281-300, looked up)
peptide: LSDLYTVLKTTSTTLESELY-cellulose
modifications: reading uncertain
notes: source: synthetic peptide, spotted on glass slide array (Intavis)
For the molecule B1, the binding result in assay [1] and in assay [2] was “binds” each time.

B2: d(151-170) (peptide, UniProt P32366 151-170, looked up)
peptide: TVLVDTPLAPYFKNCFDTAE-cellulose
modifications: reading uncertain
notes: as for B1
B2: the binding result in assay [3] and in assay [2] was “binds” throughout.

B3: D(111-130) (peptide)
peptide: SYIDPEINDFRLTGLGRGGQ-cellulose
modifications: reading uncertain
notes: The promiscuous, 'sticky' peptide that was detected by most probes including MBP alone; source: synthetic peptide, spotted on glass slide array (Intavis)
B3: in assay [4], the binding result was “binds”.

B4: A(205-224) (peptide, UniProt P17255 205-224, looked up)
peptide: GKKSDFTLYHTWPVRVPRPV-cellulose
modifications: reading uncertain
notes: as for B1
Turning to B4, the binding result in assay [5] and in assay [6] was “binds” in each case.

B5: F(91-110) (peptide, UniProt P39111 91-110, looked up)
peptide: ILEIPSKDHPYDPEKDSVLK-cellulose
modifications: reading uncertain
notes: V-ATPase subunit F, S. cerevisiae, residues 91-110; source: synthetic peptide, spotted on glass slide array (Intavis)
Consider B5, for which the binding result in assay [1], in assay [7] and in assay [8] was “binds” each time.

B6: C(11-30) (peptide, UniProt P31412 11-30, looked up)
peptide: FILISLPQNAQPVTAPGSKT-cellulose
modifications: reading uncertain
notes: V-ATPase subunit C, S. cerevisiae, residues 11-30; source: synthetic peptide, spotted on glass slide array (Intavis)
With B6, the binding result in assay [5] and in assay [6] was “binds” in each case.

B7: C(181-200) (peptide, UniProt P31412 181-200, looked up)
peptide: PEDFVLNSEHLTTVLVAVPK-cellulose
modifications: reading uncertain
notes: as for B1
As for B7, the binding result in assay [5] is on record as “binds”.

B8: a(451-470) (peptide, UniProt P32563 451-470, looked up)
peptide: RGEIFDMAFTGRYIILLMGV-cellulose
modifications: reading uncertain
notes: as for B1
For the molecule B8, the binding result in assay [5] is given as “binds”.

B9: B(61-80) (peptide, UniProt P16140 61-80, looked up)
peptide: TVRQGQVLEIRGDRAIVQVF-cellulose
modifications: reading uncertain
notes: V-ATPase subunit B, S. cerevisiae, residues 61-80; source: synthetic peptide, spotted on glass slide array (Intavis)
Take B9: the binding result in assay [5] is listed as “binds”.
